The term Kd denotes the constant that tells how readily two partners part at equilibrium. As usually defined, the EC50 is the midpoint of the concentration-response curve. In general, koff refers to the rate constant with which the complex falls apart. Broadly, the kon is a measure of how fast the partners come together.

Assay [1] has as its target T1, cynomolgus monkey BSG2 on the cell surface (cynomolgus monkey).
T1 construct: whole, on cells; also called BAF3-cyno BSG2; Cyno BSG2
Nature of the assay: receptor binding assay, Eu-labeled antibody on cells expressing cynomolgus BSG2. The protocol: Cell lines expressing BSG2 were harvested and washed once in assay buffer (PBS, 0.1% BSA, 0.02% Na Azide, 10 mM EDTA) and resuspended to 5×10⁶ cells per mL. Serial 1:2 dilutions of ⁺³Eu-labeled anti-BSG2 antibody stock in assay buffer were made for final concentrations ranging from 1.6×10⁻⁸-7.7×10⁻¹² M, and a 4 mg/mL solution of unlabeled anti-BSG2 antibody was also prepared. To 96 well round bottom plates, 25 μl of ⁺³Eu-labeled antibody dilutions were added to 25 μl buffer (total counts), or 25 μl of unlabeled antibody were added to 25 μl buffer (background counts). 50 μl of cells at 2.5×10⁵ cells per well were then added to all samples, mixed gently, and incubated on ice for 1 hour. […] Signal was determined by incubating samples with 150 μL/well of enhancement buffer and read using Envision. The specific counts were determined by subtracting the background counts (cells+labeled antibody+excess cold antibody) from the corresponding total counts (cells+labeled antibody) for each antibody concentration. The labeled antibody concentration versus total counts was analyzed using Graphpad Prism 4 to calculate Kd and Bmax values.
BSG2 antibody binding activities against whole cells expressing human or cynomolgus monkey BSG2 were assessed by ECL using MSD technology (described in Example 1.3) and the receptor binding assay (described in Example 1.4) and are shown in Table 11.

The target of assay [2] is T2, human BSG2 (basigin isoform 2) on the cell surface (human, UniProt P35613 140-385).
T2 construct: Presented on stably transfected BAF3 cells or endogenously on human tumor cell lines (HepG2, MiaPaCa-2, DoHH-2); also called hBSG2; CD147
T2 sequence: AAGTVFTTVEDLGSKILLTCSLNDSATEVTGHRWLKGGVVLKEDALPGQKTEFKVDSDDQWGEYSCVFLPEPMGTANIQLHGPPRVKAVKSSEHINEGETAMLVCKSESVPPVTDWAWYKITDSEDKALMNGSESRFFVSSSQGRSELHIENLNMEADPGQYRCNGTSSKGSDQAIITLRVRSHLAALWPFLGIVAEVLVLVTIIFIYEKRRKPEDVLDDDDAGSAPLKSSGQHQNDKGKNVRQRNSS
Description: flow cytometry (FACS) on HepG2 hepatocellular carcinoma cells (cell-surface BSG2); HepG2 hepatocellular carcinoma cells (endogenous BSG2), not BAF3 transfectants. Here is the method:
Stable cell lines overexpressing cell-surface BSG2 or human tumor cell lines were harvested from tissue culture flasks, washed three times and resuspended in phosphate buffered saline (PBS) containing 1% bovine serum albumin and 1 mM CaCl₂ (FACS buffer). 5×10⁵ cells were incubated with antibodies at various concentrations in FACS buffer for 60 minutes on ice. Cells were washed twice and the bound murine monoclonal antibody was detected with a goat Fab′2 anti-mouse IgM+IgG+IgA (H+L) R-phycoerythrin-conjugated antibody (Southern Biotechnology Associates, Inc., Birmingham, Ala., Catalog No. 1012-08) diluted 1:500. Following incubation on ice (4° C., 60 minutes), cells were washed three times and resuspended in FACS buffer. Fluorescence was measured using a Becton Dickinson FACSCalibur-HTS (Becton Dickinson, San Jose, Calif., US). Data were analyzed using Graphpad Prism software and EC₅₀ values were reported as the concentration of antibody to achieve 50% of maximal BSG2 antibodies binding to BSG2 expressing cells.
For orientation: In flow cytometry, cells or beads pass a laser one at a time.

Assay [3] deals with T3, cynomolgus monkey BSG2 extracellular domain (cynomolgus monkey).
T3 construct: extracellular domain; also called Cynomolgus BSG2 ECD
Nature of the assay: SPR (Biacore), mAb captured by anti-mouse Fc, BSG2 ECD injected, 25 C. Here is the method: (§1) Binding of BSG2 antibodies to a purified recombinant BSG2 extracellular domain (ECD) was determined by surface plasmon resonance-based measurements with a Biacore® instrument (either a Biacore 2000, Biacore 3000, or Biacore T100; GE Healthcare, Piscataway, N.J., US). The assay format for mAb affinity analysis was Fc-based capture via immobilized anti-Fc IgG. A standard amine coupling protocol was employed to immobilize Fc-specific IgG via primary amines to the carboxy-methyl (CM) dextran surface of CMS sensorchips. For the study of mouse anti-human BSG2 mAbs, anti-mouse Fc was used as the immobilized capture reagent. An automated protocol, available on the Biacore 2000, was used to immobilize 8000-10000RU of capture reagent in all 4 flowcells of the sensorchip. Binding was recorded as a function of time and kinetic rate constants were calculated. In this assay, on-rates as fast as 10⁷M⁻¹ s⁻¹ and off-rates as slow as 10⁻⁵ s⁻¹ can be measured.
(§2) Briefly, the CM-dextran surfaces were activated by freshly prepared 1:1 […] 3-(N,N-dimethylamino)propyl-N-ethylcarbodiimide (EDC). Then the anti-Fc IgG capture reagent (20 μg/ml in 10 mM sodium acetate, pH 4.5) was applied to the surface followed by deactivation of the surface and blocking of the residual reactive sites with 1M ethanolamine (pH 8.5). The running buffer employed was PBS-PB [1×PBS (Sigma P3813), pH 7.4, 0.005% P20 surfactant, 0.1 mg/ml BSA (Sigma-A7906)] and the assay temperature was 25° C. All reagents were diluted into running buffer to the specified concentrations. Each experimental cycle consisted of the following steps: (1) anti-BSG2 mAbs at 0.5 to 1 μg/ml were captured in flowcells 2, 3 or 4 to a level of 100-120RU. All measurements were referenced against flowcell 1 which had no captured anti-BSG2 mAb; (2) human BSG2 ECD was injected through all 4 flowcells, 240 μl at 80 μl/min. After the antigen injection, dissociation was monitored for 600 seconds at 80 μl/min; and (3) the anti-Fc capture surface was regenerated with 10 mM glycine, pH 1.5.
(§3) The BSG2 antibody binding affinities were determined by the BIACORE technology as described in Example 1.2. Table 10 represents the antibody binding kinetics against human and cynomolgus monkey BSG2 extracellular domain (ECD).
(In SPR one partner is held on a chip, and binding of the other changes the refractive index at the surface.)

In assay [4] the target is T4, purified recombinant human BSG2 extracellular domain (human, UniProt P35613 22-325).
T4 construct: also called Human BSG2 ECD
T4 sequence: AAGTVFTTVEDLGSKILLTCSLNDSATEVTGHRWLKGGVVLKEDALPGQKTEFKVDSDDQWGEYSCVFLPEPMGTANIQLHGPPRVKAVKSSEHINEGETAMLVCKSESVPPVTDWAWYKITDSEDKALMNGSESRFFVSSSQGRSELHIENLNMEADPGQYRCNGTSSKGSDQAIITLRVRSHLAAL
The description is as above. Here is the method: as §1, §2, §3

Assay [5] deals with T2, human BSG2 (basigin isoform 2) on the …. Nature of the assay: cell-based or functional assay.

B1: mouse anti-human BSG2 monoclonal antibody ML64-6A11-3A3 (antibody, mouse IgG2a, V domains shown)
VH: EVKLEESGGGLVQPGGSMKLSCVASGFTFSNFWMDWVRQSPEKGLEWIAGIRLKSYNYATHYAESVKGRFTISRDDSKSSVYLQMNNLRAEDTGIYYCTDWDGAYWGQGTLVTVSA
VL: DIVMTQSHKFMSTSVGDRVSITCKASQDVSTDVAWYQQKPGQSPKLLIYSASYRYTGVPDRFTGSGSGTDFTFTISSVQAEDLAVYYCQQHYSTPFTFGSGTKLEIK
notes: Hybridoma antibody, mouse IgG2a/kappa; also called 6A11-3A3 parental mouse antibody; Ab 3A3
In the case of B1, the affinity in assay [1], expressed as Kd, was 3.6 nM. In assay [2], this molecule came in with an EC50 of 0.32 nM. In assay [3], this molecule showed a Kd of 440 nM, a koff of 0.149 s⁻¹ and a kon of 338000 M⁻¹ s⁻¹. Besides, in assay [4], the Kd was 1.5 nM, the koff came to 0.00059 s⁻¹ and the kon is 400000 M⁻¹ s⁻¹. Also, the “CDC assay (% killing at 10 µg/ml Ab), MiaPaCa-2 pancreatic cancer cells” value in assay [5] was 84 % killing.

The record behind these values is US20110223176A1 (AbbVie / Abbott, published 2011).
